{"source": "paper PMC3173369", "about": "“Mitochondrial Inhibitory Factor 1 (IF1) Is Present in Human Serum and Is Positively Correlated with HDL-Cholesterol” (PLoS ONE, 2011)", "proteins": {"B1": {"name": "Recombinant human IF1 (mitochondrial Inhibitory Factor 1) (natural protein, UniProt Q9UII2-1 26-106, looked up)", "chain": "GSDQSENVDRGAGSIREAGGAFGKREQAEEERYFRAQSREQLAALKKHHEEEIVHHKKEIERLQKEIERHKQKIKMLKHDD", "notes": "mature peptide without the mitochondrial targeting signal, amplified from HeLa cell cDNA; Cloned at BamHI/HindIII into pBEn-SBP-SET1-Qa (Stratagene); also called rIF1; recombinant IF1"}}, "target": "the molecule itself", "experiment": "SDS-PAGE and Western blot after immunoprecipitation; 2 µg purified rIF1 immunoprecipitated with anti-IF1 antibodies cross-linked on protein A/G resin, eluted in 0.2 M glycine pH 2.8, boiled in Laemmli buffer with SDS and DTT, 15% SDS-PAGE, blot with anti-IF1; bands at the size of monomer and dimer", "data": [{"protein": "B1", "values": [{"measurement": "stoichiometry N", "value": 2}]}]}
